Measured values as given in article doi:10.1101/2020.02.14.949818 (bioRxiv, 2020).

B1: mouse FUT8 (MmFUT8_(68-575)) (domain or fragment)
chain: RIPEGPIDQGTATGRVRVLEEQLVKAKEQIENYKKQARNGLGKDHEILRRRIENGAKELWFFLQSELKKLKHLEGNELQRHADEILLDLGHHERSIMTDLYYLSQTDGAGDWREKEAKDLTELVQRRITYLQNPKDCSKARKLVCNINKGCGYGCQLHHVVYCFMIAYGTQRTLILESQNWRYATGGWETVFRPVSETCTDRSGLSTGHWSGEVNDKNIQVVELPIVDSLHPRPPYLPLAVPEDLADRLLRVHGDPAVWWVSQFVKYLIRPQPWLEKEIEEATKKLGFKHPVIGVHVRRTDKVGTEAAFHPIEEYMVHVEEHFQLLARRMQVDKKRVYLATDDPTLLKEAKTKYSNYEFISDNSISWSAGLHNRYTENSLRGVILDIHFLSQADFLVCTFSSQVCRVAYEIMQTLHPDASANFHSLDDIYYFGGQNAHNQIAVYPHKPRTEEEIPMEPGDIIGVAGNHWDGYSKGINRKLGKTGLYPSYKVREKIETVKYPTYPEAEK
B2: truncated human FUT8 (HsFUT8_(105-575)) (domain or fragment)
chain: RNGLGKDHEILRRRIENGAKELWFFLQSELKKLKNLEGNELQRHADEFLLDLGHHERSIMTDLYYLSQTDGAGDWREKEAKDLTELVQRRITYLQNPKDCSKAKKLVCNINKGCGYGCQLHHVVYCFMIAYGTQRTLILESQNWRYATGGWETVFRPVSETCTDRSGISTGHWSGEVKDKNVQVVELPIVDSLHPRPPYLPLAVPEDLADRLVRVHGDPAVWWVSQFVKYLIRPQPWLEKEIEEATKKLGFKHPVIGVHVRRTDKVGTEAAFHPIEEYMVHVEEHFQLLARRMQVDKKRVYLATDDPSLLKEAKTKYPNYEFISDNSISWSAGLHNRYTENSLRGVILDIHFLSQADFLVCTFSSQVCRVAYEIMQTLHPDASANFHSLDDIYYFGGQNAHNQIAIYAHQPRTADEIPMEPGDIIGVAGNHWDGYSKGVNRKLGRTGLYPSYKVREKIETVKYPTYPEAEK

Tests used:
crystal structure = biological target: the molecule itself; assay: crystal structure
SEC-SAXS = biological target: the molecule itself; assay: SEC-SAXS

| Protein | binding result (crystal structure) | stoichiometry N (SEC-SAXS) |
| --- | --- | --- |
| B1 | binds |  |
| B2 |  | 2 |
